From US11453711B2, “Fusion proteins of GLP-1 and GDF15 and conjugates thereof” (BEIJING QL BIOPHARMACEUTICAL CO., LTD., priority 2019, dated 2022)

Experiments:
[1] = Body weight and food intake in C57BL/6 mice, unconjugated fusion proteins, 30 nmol/kg daily 10 days; assay type: in vivo; settings: for Body weight reduction at 30 nmol/kg (% reduction compared to vehicle)(Day11) / Cumulative food intake reduction at 30 nmol/kg (% reduction compared to vehicle)(Day11): C57 mice, 30 nmol/kg daily, Day11, unconjugated fusion proteins
Description: (§1) 10 week old male C57BL/6 mice were injected everyday subcutaneously with 15 nmol/kg of the fusion protein conjugates (i.e., MLC002, MLC 004, MLC 005, MLC 006, MLC 007, MLC 008, and MLC 009) for 14 days. Food intake and body weight were measured daily and five animals were used for each treatment group. Body weight (BW) was monitored for each individual animal, but food intake for each group animals was measured together. Day 1 and Day 14 are first day and last day of molecule dosage. % BW loss=100*(BW on Day n-BW on Day 1)/(BW on Day 1). Cumulative food intake on Day n represents sum of food intake from Day 1 to Day n. Data are indicated as mean values and standard error (SEM) or pooled values. Statistical analysis was performed by One-way ANOVA. Body weight reduction on Day 11 is calculated by −1*(% BW loss−% BW loss of vehicle group); Cumulative food intake reduction is calculated by −100*(cumulative food intake-cumulative food intake of vehicle)/cumulative food intake of vehicle.
As described in the above method, a daily dose of 30 nmol/kg of the unconjugated fusion proteins (i.e., MLC100, MLC023, MLC022, MLC020, MLC003, MLC124, MLC021, MLC019, MLC102) were administered to C57BL/6 for 10 days. Data were calculated as above method. Day 1 and Day 10 are first day and last day of administration.

[2] = Pharmacokinetic measurement in mouse, single sc dose 30 nmol/kg, plasma ELISA; settings: for Cmax: read-out: Cmax (nmol/L), single sc dose 30 nmol/kg; for AUC0-24 h / Terminal t1/2 / Tmax: single sc dose 30 nmol/kg
[3] = Body weight and food intake in C57BL/6 mice, fusion protein conjugates, 30 nmol/kg daily 10 days; assay type: in vivo
Description: as §1
Data were calculated in the same way as described above. Day 1 and Day 10 are first day and last day of the administration.
MLC014 was used as a negative control. MLC014 has an amino acid sequence of SEQ ID NO: 261, which contains a linker fused to the N terminal of GDF15, with a CRM conjugated to the lysine residue in the linker. Tirzepatide was also used as a control.

B1: MLC124: unconjugated GLP-1/GDF15 fusion protein, linker of at least 60 residues (protein)
chain: HGEGTFTSDVSSYLEEQAAKEFIAWLVRGGGGQEPGAQPGQEPGAQPGQEPGAQPGQEPGAQPGQEPGAQPGQEPGAQPGAQPGAQPGAQPARQGDHCPLGPGRCCRLHTVRASLEDLGWADWVLSPREVQVTMCIGACPSQFRAANLHAQIKTSLHRLRPDTVPAPCCVPASYNPMVLIQRTDTGVSLQTYDDLLARDCHCI
Body weight reduction at 30 nmol/kg (% reduction compared to vehicle)(Day11) [1]: 23.0% | Cumulative food intake reduction at 30 nmol/kg (% reduction compared to vehicle)(Day11) [1]: 38.0% | in vivo efficacy (food intake and body weight reduction) ([1]; unconjugated fusion proteins, 30 nmol/kg daily 10 days, by linker length): the most significant results among all the tested fusion proteins

B2: MLC023: unconjugated GLP-1/GDF15 fusion protein (protein)
chain: HGEGTFTSDVSSYLEEQAAKEFIAWLVRGGGGQEPGQEPGQEPARQGDHCPLGPGRCCRLHTVRASLEDLGWADWVLSPREVQVTMCIGACPSQFRAANLHAQIKTSLHRLKPDTVPAPCCVPASYNPMVLIQKTDTGVSLQTYDDLLAKDCHCI
Body weight reduction at 30 nmol/kg (% reduction compared to vehicle)(Day11) [1]: 12.5% | Cumulative food intake reduction at 30 nmol/kg (% reduction compared to vehicle)(Day11) [1]: 31.7%

B3: MLC017: fusion polypeptide SEQ ID NO: 264 conjugated with Moiety A at 55K of Linker (conjugate)
chain: HGEGTFTSDVSSYLEEQAAREFIAWLVRGGGGQEPGAQPGQEPGAQPGQEPGAQPGQEPGAQPGQEPGAQPGQEPGAQPGAQPGAKPGAQPGAQPGAQPGAQPGAQPGAQPARQGDHCPLGPGRCCRLHTVRASLEDLGWADWVLSPREVQVTMCIGACPSQFRAANLHAQIKTSLHRLRPDTVPAPCCVPASYNPMVLIQRTDTGVSLQTYDDLLARDCHCI
modifications: Moiety A conjugated at linker K55
Cmax [2]: 29.4 nmol/L | AUC0-24 h [2]: 0.4385 µM·h | Terminal t1/2 [2]: 11.1 h | Tmax [2]: 7.3 h | Body weight reduction at 30 nmol/kg (% reduction compared to vehicle)(Day11) [3]: 25.4% | Cumulative food intake reduction at 30 nmol/kg (% reduction compared to vehicle)(Day11) [3]: 52.3%

B4: MLC074: fusion polypeptide SEQ ID NO: 369 conjugated with Moiety B at 41C of Linker (conjugate)
chain: HGEGTFTSDVSSYLEEQAAKEFIAWLVRGGGGQEPGAQPGQEPGAQPGQEPGAQPGQEPGAQPGQEPGAQPCQEPGAQPGAQPGAQPGAQPGAQPGAQPGAQPGAQPGAQPARQGDHCPLGPGRCCRLHTVRASLEDLGWADWVLSPREVQVTMCIGACPSQFRAANLHAQIKTSLHRLKPDTVPAPCCVPASYNPMVLIQKTDTGVSLQTYDDLLAKDCHCI
modifications: Moiety B conjugated at linker C41
Cmax [2]: 102 nmol/L | AUC0-24 h [2]: 1.8247 µM·h | Terminal t1/2 [2]: 18.0 h | Tmax [2]: 10.7 h | Body weight reduction at 30 nmol/kg (% reduction compared to vehicle)(Day11) [3]: 20.0% | Cumulative food intake reduction at 30 nmol/kg (% reduction compared to vehicle)(Day11) [3]: 39.9%

B5: MLC086: fusion polypeptide SEQ ID NO: 377 conjugated with Moiety C at 37C of Linker (conjugate)
chain: HGEGTFTSDVSSYLEEQAAKEFIAWLVRGGGGQEPGAQPGQEPGAQPGQEPGAQPGQEPGAQPGQEPCQAPGQEPGAQPGAQPGAQPGAQPGAQPGAQPGAQPGAQPGAQPARQGDHCPLGPGRCCRLHTVRASLEDLGWADWVLSPREVQVTMCIGACPSQFRAANLHAQIKTSLHRLKPDTVPAPCCVPASYNPMVLIQKTDTGVSLQTYDDLLAKDCHCI
modifications: Moiety C conjugated at linker Cys37
Body weight reduction at 30 nmol/kg (% reduction compared to vehicle)(Day11) [3]: 24.4% | Cumulative food intake reduction at 30 nmol/kg (% reduction compared to vehicle)(Day11) [3]: 34.8%

B6: MLC085: fusion polypeptide SEQ ID NO: 377 conjugated with Moiety B at 37C of Linker (conjugate)
chain: HGEGTFTSDVSSYLEEQAAKEFIAWLVRGGGGQEPGAQPGQEPGAQPGQEPGAQPGQEPGAQPGQEPCQAPGQEPGAQPGAQPGAQPGAQPGAQPGAQPGAQPGAQPGAQPARQGDHCPLGPGRCCRLHTVRASLEDLGWADWVLSPREVQVTMCIGACPSQFRAANLHAQIKTSLHRLKPDTVPAPCCVPASYNPMVLIQKTDTGVSLQTYDDLLAKDCHCI
modifications: Moiety B conjugated at linker Cys37
Body weight reduction at 30 nmol/kg (% reduction compared to vehicle)(Day11) [3]: 23.8% | Cumulative food intake reduction at 30 nmol/kg (% reduction compared to vehicle)(Day11) [3]: 40.1%

B7: MLC075: fusion polypeptide SEQ ID NO: 369 conjugated with Moiety C at 41C of Linker (conjugate)
chain: HGEGTFTSDVSSYLEEQAAKEFIAWLVRGGGGQEPGAQPGQEPGAQPGQEPGAQPGQEPGAQPGQEPGAQPCQEPGAQPGAQPGAQPGAQPGAQPGAQPGAQPGAQPGAQPARQGDHCPLGPGRCCRLHTVRASLEDLGWADWVLSPREVQVTMCIGACPSQFRAANLHAQIKTSLHRLKPDTVPAPCCVPASYNPMVLIQKTDTGVSLQTYDDLLAKDCHCI
modifications: Moiety C conjugated at linker C41
Cmax [2]: 69.8 nmol/L | AUC0-24 h [2]: 1.2753 µM·h | Terminal t1/2 [2]: 20.4 h | Tmax [2]: 13.3 h | Body weight reduction at 30 nmol/kg (% reduction compared to vehicle)(Day11) [3]: 20.7% | Cumulative food intake reduction at 30 nmol/kg (% reduction compared to vehicle)(Day11) [3]: 46.2%

B8: MLC091: fusion polypeptide SEQ ID NO: 380 conjugated with Moiety B at 35C of Linker (conjugate)
chain: HGEGTFTSDVSSYLEEQAAKEFIAWLVRGGGGAQPGAQPGAQPGAQPGAQPGAQPGAQPGAQPGQCPGAQPGQEPGAQPGQEPGAQPGQEPGAQPGQEPGAQPGQEPGAQPARQGDHCPLGPGRCCRLHTVRASLEDLGWADWVLSPREVQVTMCIGACPSQFRAANLHAQIKTSLHRLKPDTVPAPCCVPASYNPMVLIQKTDTGVSLQTYDDLLAKDCHCI
modifications: Moiety B conjugated at linker Cys35
Body weight reduction at 30 nmol/kg (% reduction compared to vehicle)(Day11) [3]: 22.7% | Cumulative food intake reduction at 30 nmol/kg (% reduction compared to vehicle)(Day11) [3]: 38.1%

B9: MLC088: fusion polypeptide SEQ ID NO: 378 conjugated with Moiety C at 41C of Linker (conjugate)
chain: HGEGTFTSDVSSYLEEQAAKEFIAWLVRGGGGAQPGAQPGAQPGAQPGAQPGAQPGAQPGAQPGQEPGAQPCQEPGAQPGQEPGAQPGQEPGAQPGQEPGAQPGQEPGAQPARQGDHCPLGPGRCCRLHTVRASLEDLGWADWVLSPREVQVTMCIGACPSQFRAANLHAQIKTSLHRLKPDTVPAPCCVPASYNPMVLIQKTDTGVSLQTYDDLLAKDCHCI
modifications: Moiety C conjugated at linker Cys41
Body weight reduction at 30 nmol/kg (% reduction compared to vehicle)(Day11) [3]: 22.4% | Cumulative food intake reduction at 30 nmol/kg (% reduction compared to vehicle)(Day11) [3]: 34.8%

B10: MLC087: fusion polypeptide SEQ ID NO: 378 conjugated with Moiety B at 41C of Linker (conjugate)
chain: HGEGTFTSDVSSYLEEQAAKEFIAWLVRGGGGAQPGAQPGAQPGAQPGAQPGAQPGAQPGAQPGQEPGAQPCQEPGAQPGQEPGAQPGQEPGAQPGQEPGAQPGQEPGAQPARQGDHCPLGPGRCCRLHTVRASLEDLGWADWVLSPREVQVTMCIGACPSQFRAANLHAQIKTSLHRLKPDTVPAPCCVPASYNPMVLIQKTDTGVSLQTYDDLLAKDCHCI
modifications: Moiety B conjugated at linker Cys41
Body weight reduction at 30 nmol/kg (% reduction compared to vehicle)(Day11) [3]: 22.7% | Cumulative food intake reduction at 30 nmol/kg (% reduction compared to vehicle)(Day11) [3]: 31.8%

B11: MLC092: fusion polypeptide SEQ ID NO: 380 conjugated with Moiety C at 35C of Linker (conjugate)
chain: HGEGTFTSDVSSYLEEQAAKEFIAWLVRGGGGAQPGAQPGAQPGAQPGAQPGAQPGAQPGAQPGQCPGAQPGQEPGAQPGQEPGAQPGQEPGAQPGQEPGAQPGQEPGAQPARQGDHCPLGPGRCCRLHTVRASLEDLGWADWVLSPREVQVTMCIGACPSQFRAANLHAQIKTSLHRLKPDTVPAPCCVPASYNPMVLIQKTDTGVSLQTYDDLLAKDCHCI
modifications: Moiety C conjugated at linker Cys35
Body weight reduction at 30 nmol/kg (% reduction compared to vehicle)(Day11) [3]: 22.2% | Cumulative food intake reduction at 30 nmol/kg (% reduction compared to vehicle)(Day11) [3]: 33.9%

B12: MLC022: unconjugated GLP-1/GDF15 fusion protein (protein)
chain: HGEGTFTSDVSSYLEEQAAKEFIAWLVRGGGGQEPGQEPGQEPGQEPGQEPGQEPARQGDHCPLGPGRCCRLHTVRASLEDLGWADWVLSPREVQVTMCIGACPSQFRAANLHAQIKTSLHRLKPDTVPAPCCVPASYNPMVLIQKTDTGVSLQTYDDLLAKDCHCI
Body weight reduction at 30 nmol/kg (% reduction compared to vehicle)(Day11) [1]: 10.4% | Cumulative food intake reduction at 30 nmol/kg (% reduction compared to vehicle)(Day11) [1]: 30.0%
